From patent US20060234285A1 (Human Genome Sciences, published 2006)

What was measured:
Experiment in all cases: flow cytometry on transiently transfected cells
[1] = biological target: T1, TNFR2, on transiently transfected cells (UniProt P20333 23-461, limits assumed)
T1 construct: whole, on cells
T1 sequence (looked up): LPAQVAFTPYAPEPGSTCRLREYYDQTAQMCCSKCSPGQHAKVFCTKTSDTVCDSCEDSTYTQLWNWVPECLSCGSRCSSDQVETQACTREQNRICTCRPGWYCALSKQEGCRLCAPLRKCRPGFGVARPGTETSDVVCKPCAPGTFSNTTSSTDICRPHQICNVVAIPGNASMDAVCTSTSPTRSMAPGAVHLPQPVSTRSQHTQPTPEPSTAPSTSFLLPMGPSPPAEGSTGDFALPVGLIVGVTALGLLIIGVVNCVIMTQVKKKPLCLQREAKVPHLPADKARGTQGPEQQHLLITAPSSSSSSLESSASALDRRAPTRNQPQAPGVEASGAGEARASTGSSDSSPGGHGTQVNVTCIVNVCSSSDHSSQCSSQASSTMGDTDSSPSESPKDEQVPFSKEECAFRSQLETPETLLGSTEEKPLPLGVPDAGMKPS
Method: (§1) One million cells, in 0.1 ml of FACS buffer (PBS, 0.1% BSA, 0.1% NaN₃), were incubated with 0.1-1 microgram of protein or antibody at RT for 15 min. The cells were washed with 3 ml of FACS buffer, reacted with biotinylated primary antibody, and stained with PE-conjugated secondary antibody at RT for 15 min. Cells were then washed again, resuspended in 0.5 microgram/ml of propidium iodide, and live cells were gated and analyzed on a FACScan using the CellQuest software (BD Biosciences).

[2] = biological target: T2, HveA, on transiently transfected cells (UniProt Q92956 39-283, limits assumed)
T2 construct: whole, on cells
T2 sequence (looked up): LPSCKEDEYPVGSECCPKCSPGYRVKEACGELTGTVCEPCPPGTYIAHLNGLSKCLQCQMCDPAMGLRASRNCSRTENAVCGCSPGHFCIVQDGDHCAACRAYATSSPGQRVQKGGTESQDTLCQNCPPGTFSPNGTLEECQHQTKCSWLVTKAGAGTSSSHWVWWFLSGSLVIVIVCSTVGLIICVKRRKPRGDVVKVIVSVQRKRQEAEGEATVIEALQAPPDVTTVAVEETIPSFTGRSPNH
Method: as §1

[3] = biological target: T3, RANK, on transiently transfected cells (UniProt Q9Y6Q6 30-616, limits assumed)
T3 construct: whole, on cells
T3 sequence (looked up): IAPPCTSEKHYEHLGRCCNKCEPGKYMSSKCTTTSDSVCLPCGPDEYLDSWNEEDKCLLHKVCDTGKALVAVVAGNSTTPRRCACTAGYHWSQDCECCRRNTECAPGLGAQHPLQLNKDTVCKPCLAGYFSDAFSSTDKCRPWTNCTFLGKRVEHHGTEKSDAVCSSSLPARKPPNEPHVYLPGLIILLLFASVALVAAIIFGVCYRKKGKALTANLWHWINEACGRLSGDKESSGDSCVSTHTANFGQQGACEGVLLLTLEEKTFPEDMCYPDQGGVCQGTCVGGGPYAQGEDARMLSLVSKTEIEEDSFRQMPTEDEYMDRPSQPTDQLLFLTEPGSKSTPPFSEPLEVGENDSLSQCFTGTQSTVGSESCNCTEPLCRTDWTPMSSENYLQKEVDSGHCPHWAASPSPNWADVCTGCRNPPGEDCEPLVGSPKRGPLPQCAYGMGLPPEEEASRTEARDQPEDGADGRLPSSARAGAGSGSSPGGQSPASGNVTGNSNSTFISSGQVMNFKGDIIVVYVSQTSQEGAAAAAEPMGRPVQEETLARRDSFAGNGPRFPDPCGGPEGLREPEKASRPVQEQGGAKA
Method: as §1

[4] = biological target: T4, DR4, on transiently transfected cells (UniProt O00220 24-468, limits assumed)
T4 construct: whole, on cells
T4 sequence (looked up): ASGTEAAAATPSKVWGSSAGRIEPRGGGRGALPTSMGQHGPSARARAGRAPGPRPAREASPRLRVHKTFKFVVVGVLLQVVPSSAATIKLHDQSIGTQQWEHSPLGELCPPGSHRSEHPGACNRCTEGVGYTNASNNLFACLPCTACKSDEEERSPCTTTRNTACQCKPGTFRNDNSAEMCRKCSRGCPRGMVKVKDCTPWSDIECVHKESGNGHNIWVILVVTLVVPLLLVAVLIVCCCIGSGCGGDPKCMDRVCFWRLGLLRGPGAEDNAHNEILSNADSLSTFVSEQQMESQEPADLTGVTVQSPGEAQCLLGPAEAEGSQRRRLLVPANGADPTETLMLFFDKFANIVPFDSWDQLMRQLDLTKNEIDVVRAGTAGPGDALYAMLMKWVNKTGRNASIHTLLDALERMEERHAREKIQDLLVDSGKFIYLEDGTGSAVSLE
Method: as §1

[5] = biological target: T5, 4-1BB, on transiently transfected cells (UniProt Q07011 24-255)
T5 construct: whole, on cells
Method: as §1

[6] = biological target: T6, DR6, on transiently transfected cells (UniProt O75509 42-655, limits assumed)
T6 construct: whole, on cells
T6 sequence (looked up): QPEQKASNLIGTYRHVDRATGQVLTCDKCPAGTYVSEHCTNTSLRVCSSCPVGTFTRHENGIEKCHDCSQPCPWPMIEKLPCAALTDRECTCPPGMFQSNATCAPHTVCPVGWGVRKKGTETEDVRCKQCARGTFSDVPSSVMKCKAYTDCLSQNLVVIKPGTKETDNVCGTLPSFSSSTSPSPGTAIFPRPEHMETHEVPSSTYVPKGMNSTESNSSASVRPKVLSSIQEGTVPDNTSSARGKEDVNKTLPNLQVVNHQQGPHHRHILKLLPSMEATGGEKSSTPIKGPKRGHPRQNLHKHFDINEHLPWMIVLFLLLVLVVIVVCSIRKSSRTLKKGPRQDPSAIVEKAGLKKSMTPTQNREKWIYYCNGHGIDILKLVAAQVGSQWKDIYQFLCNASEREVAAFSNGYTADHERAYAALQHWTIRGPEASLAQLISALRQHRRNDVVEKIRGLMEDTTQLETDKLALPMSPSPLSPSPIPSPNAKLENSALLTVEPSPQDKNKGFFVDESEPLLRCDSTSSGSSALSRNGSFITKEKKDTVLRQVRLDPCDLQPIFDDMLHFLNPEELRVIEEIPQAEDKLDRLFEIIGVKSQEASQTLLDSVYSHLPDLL
Method: as §1

[7] = biological target: T7, BCMA, on transiently transfected cells (UniProt Q02223 1-184, limits assumed)
T7 construct: whole, on cells
T7 sequence (looked up): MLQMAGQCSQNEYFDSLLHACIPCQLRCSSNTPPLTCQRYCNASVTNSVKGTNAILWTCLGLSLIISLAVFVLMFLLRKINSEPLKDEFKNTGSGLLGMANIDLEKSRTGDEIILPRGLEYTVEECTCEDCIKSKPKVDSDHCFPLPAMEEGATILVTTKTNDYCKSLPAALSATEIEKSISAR
Method: as §1

Measured: binding result

T5 sequence (Q07011 24-255): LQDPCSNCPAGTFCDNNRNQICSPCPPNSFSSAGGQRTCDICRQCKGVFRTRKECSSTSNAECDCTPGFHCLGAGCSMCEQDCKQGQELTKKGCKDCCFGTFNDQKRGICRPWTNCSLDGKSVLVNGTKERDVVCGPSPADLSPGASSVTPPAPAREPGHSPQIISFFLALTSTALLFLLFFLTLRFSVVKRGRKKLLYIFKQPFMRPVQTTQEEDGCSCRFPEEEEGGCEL

B1: FLAG-tagged soluble form of TNF-gamma-beta (aa 72-251) (ligand, human, UniProt O95150 72-251, looked up, not shown: small tags and cut ends)
chain: LKGQEFAPSHQQVYAPLRADGDKPRAHLTVVRQTPTQHFKNQFPALHWEHELGLAFTKNRMNYTNKFLLIPESGDYFIYSQVTFRGMTSECSEIRQAGRPNKPDSITVVITKVTDSYPEPTQLLMGTKSVCEVGSNWFQPIYLGAMFSLQEGDKLMVNVSDISLVDYTKEDKTFFGAFLL
notes: also called FLAG-TL1β; FLAG-TNF-gamma-beta
no binding: [1] | [2] | [3] | [4] | [5] | [6] | [7]
